The target in test [1] is human βNGF (R&D Systems, Inc.) (human, UniProt P01138 122-241). The test can be described thus: cell-based or functional assay.
Test [2] deals with mouse βNGF (R&D Systems, Inc.) (mouse, UniProt P01139 122-241). The test can be described thus: cell-based or functional assay.
Sequence of mouse βNGF (R&D Systems, Inc.) (P01139 122-241 limits assumed): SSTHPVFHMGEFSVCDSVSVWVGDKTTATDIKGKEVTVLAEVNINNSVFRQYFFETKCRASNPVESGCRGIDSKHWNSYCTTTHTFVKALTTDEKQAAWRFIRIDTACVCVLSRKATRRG

Sequence of human βNGF (R&D Systems, Inc.) (P01138 122-241 limits assumed): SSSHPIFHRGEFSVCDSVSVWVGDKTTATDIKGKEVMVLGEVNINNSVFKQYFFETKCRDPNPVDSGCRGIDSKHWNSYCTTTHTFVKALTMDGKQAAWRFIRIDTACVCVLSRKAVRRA

B1: tanezumab (antibody, V domains shown)
VH: QVQLQESGPGLVKPSETLSLTCTVSGFSLIGYDLNWIRQPPGKGLEWIGIIWGDGTTDYNSAVKSRVTISKDTSKNQFSLKLSSVTAADTAVYYCARGGYWYATSYYFDYWGQGTLVTVSS
VL: DIQMTQSPSSLSASVGDRVTITCRASQSISNNLNWYQQKPGKAPKLLIYYTSRFHSGVPSRFSGSGSGTDFTFTISSLQPEDIATYYCQQEHTLPYTFGQGTKLEIKR
Regarding B1, the figures for the “IC50, method of Example 6 (Ca2+, HEK293-human trkA)” value in test [1] and in test [2] were 0.17 mg/L and 0.23 mg/L, respectively.

B2: 1-15(N52D-A)-Fab′ conjugated to 5 kDa PEG (Fab, V domains shown)
VH: QVQLQQWGAGLLKPSETLSLTCAVYGGSFSGYYWSWVRQPPGKGLEWIGEIDHSGSTNNNPSLKSRVTISVGTSKNQFSLKLSSVTAADTAVYYCSRDGGPESGMGAFDIWGQGTMVTVSS
VL: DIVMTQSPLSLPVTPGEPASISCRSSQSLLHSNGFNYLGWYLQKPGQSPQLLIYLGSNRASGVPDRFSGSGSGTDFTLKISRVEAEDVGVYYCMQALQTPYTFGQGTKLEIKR
modifications: 5 kDa PEG conjugated by a procedure similar to Example 13 (hinge region Cys)
Regarding B2, in test [1], the “IC50, method of Example 6 at a final NGF concentration of 50 ng/ml” value worked out at 0.03 mg/L.

B3: PEGylated 1-15(N52D)-Fab′ (Fab, V domains shown)
VH: B2 VH
VL: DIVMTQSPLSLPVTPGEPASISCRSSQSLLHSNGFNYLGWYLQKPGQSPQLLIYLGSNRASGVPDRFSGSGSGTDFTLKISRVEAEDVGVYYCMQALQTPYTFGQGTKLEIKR
modifications: 40 kDa PEG (maleimide, SUNBRIGHT GL2-400MA) on Cys at position 230 of SEQ ID NO:10 (C226 based on EU index)
Regarding B3, the “IC50, method of Example 6 (Ca2+, HEK293-human trkA)” value in test [2] was found to be 0.069 mg/L.

B4: 1-15(N52D-A)-Fab′ conjugated to 10 kDa PEG (Fab, V domains shown)
VH: B2 VH
VL: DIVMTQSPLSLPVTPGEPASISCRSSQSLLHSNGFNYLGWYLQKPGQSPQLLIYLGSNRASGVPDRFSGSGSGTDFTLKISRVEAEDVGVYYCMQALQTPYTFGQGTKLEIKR
modifications: 10 kDa PEG conjugated by a procedure similar to Example 13 (hinge region Cys)
In the case of B4, the “IC50, method of Example 6 at a final NGF concentration of 50 ng/ml” value in test [1] worked out at 0.028 mg/L.

These data come from patent publication US20140155582A1 (Astellas, published 2014).
